Results as given in US20170158753A1 (INTEGRATED BIOTHERAPEUTICS, published 2017).

Tests used:
[1] = target: T1, glycoprotein from Marburg virus (MARV; Musoke isolate) (Marburg virus (MARV; Musoke isolate), UniProt P35253 19-648); assay: summary of reactivity by any method (ELISA, Western blot, BIACORE)
T1 sequence: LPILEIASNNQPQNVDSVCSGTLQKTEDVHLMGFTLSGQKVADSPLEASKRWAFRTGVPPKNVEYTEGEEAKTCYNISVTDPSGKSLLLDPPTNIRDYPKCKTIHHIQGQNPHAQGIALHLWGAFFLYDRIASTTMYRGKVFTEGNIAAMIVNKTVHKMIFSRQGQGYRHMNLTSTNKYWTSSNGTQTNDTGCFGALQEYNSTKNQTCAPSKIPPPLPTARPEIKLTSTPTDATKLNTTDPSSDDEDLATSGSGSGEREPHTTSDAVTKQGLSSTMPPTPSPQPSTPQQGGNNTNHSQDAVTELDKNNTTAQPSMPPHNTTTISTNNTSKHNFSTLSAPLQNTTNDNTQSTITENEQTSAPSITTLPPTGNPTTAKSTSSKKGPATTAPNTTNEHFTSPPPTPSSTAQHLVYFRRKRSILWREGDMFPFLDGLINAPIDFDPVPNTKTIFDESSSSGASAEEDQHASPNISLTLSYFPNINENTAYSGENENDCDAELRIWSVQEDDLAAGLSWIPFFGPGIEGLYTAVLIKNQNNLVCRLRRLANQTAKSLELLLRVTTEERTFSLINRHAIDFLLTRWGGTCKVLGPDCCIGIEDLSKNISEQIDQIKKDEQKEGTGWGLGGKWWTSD

[2] = target: T2, EBOV soluble GP (sGP) (Ebola virus (EBOV), UniProt P60170 33-324); assay: ELISA on EBOV soluble GP (sGP), OD650 against nM mAb
T2 sequence: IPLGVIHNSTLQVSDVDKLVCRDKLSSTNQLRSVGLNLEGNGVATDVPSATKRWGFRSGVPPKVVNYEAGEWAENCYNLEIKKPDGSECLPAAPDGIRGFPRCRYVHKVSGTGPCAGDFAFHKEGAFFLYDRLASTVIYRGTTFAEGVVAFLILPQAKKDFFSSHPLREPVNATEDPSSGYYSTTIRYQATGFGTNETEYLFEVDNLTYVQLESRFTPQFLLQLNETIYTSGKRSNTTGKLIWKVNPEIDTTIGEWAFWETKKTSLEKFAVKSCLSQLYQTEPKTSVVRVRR

[3] = target: T3, glycoprotein from Sudan ebolavirus (SUDV) (Sudan ebolavirus (SUDV), UniProt Q66814 33-650); assay: summary of reactivity by any method (ELISA, Western blot, BIACORE)
T3 sequence: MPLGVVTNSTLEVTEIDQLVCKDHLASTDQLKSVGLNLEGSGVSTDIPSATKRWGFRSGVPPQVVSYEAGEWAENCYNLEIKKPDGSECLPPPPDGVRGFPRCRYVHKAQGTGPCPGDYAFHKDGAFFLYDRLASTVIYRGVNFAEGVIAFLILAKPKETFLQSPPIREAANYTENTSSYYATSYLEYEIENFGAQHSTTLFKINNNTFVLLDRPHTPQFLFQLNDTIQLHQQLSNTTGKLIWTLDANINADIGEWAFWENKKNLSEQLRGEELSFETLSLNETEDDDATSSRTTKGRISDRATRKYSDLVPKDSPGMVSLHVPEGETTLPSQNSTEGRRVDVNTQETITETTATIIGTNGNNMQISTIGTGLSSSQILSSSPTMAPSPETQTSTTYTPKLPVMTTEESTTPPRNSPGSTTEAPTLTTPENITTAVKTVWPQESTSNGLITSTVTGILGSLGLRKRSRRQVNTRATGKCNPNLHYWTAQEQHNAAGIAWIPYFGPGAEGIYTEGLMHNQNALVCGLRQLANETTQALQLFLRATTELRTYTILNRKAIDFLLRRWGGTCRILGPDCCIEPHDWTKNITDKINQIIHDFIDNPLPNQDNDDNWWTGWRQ

[4] = target: T4, glycoprotein from Reston ebolavirus (RESTV) (Reston ebolavirus (RESTV), UniProt Q66799 34-651); assay: as above
T4 sequence: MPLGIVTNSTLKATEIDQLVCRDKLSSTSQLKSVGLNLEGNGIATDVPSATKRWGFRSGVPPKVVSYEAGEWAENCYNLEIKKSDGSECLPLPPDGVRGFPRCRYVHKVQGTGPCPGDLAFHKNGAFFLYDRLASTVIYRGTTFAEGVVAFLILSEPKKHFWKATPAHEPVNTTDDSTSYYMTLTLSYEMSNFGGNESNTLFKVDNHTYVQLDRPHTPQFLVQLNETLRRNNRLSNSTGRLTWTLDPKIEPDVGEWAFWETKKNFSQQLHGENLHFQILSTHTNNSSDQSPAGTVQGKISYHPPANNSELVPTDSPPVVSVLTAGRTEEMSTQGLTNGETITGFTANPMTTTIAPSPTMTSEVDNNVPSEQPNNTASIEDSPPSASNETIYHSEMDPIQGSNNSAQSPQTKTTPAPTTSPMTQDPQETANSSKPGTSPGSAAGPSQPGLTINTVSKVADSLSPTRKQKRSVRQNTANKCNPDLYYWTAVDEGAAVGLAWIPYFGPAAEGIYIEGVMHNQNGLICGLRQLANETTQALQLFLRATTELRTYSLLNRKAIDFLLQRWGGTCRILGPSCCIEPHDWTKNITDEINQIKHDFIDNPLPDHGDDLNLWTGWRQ

Binder	binding result [1]	binding result [2]	binding result [3]	EC50 [2] [nM]	binding result [4]
m21B2 (antibody, V domains shown) VH: EVQLQESGAELVRPGASVTLSCKTSGYTFTDYEMHWVKQTPVHGLEWIGAIDPETGGTAYNQKFKGKATLTADKSSSTAYMELSRLTSEDSAVYYCTGNYATDYWGQGTSVTVSS VL: DIVMSQSPSSLAVSAGEKVTMSCKSSQSLFNSRSRKNYLAWYQLKPGQSPKLLIYWASTRESGVPDRFTGSGSGTDFTLTISSVQAEDLAVYYCKQSNYLWTFGGGTKLEIKR	binds				
m16G8 (antibody, V domains shown) VH: EVQLQESGPGLVKPGASVKISCKASGYSFTGYYMNWVKQSPEKSLEWIGEINPSTGGTTYNQKFKAKATLTVDKSSSTAYMQLKSLTSEDSAVYYCVRYSHYYGSGSWYFDVWGTGTTVTVSS VL: DIQMTQSPASLSASVGETVTITCRASENIYSNLAWYQQKQGKSPQLLVNAATNLADGVPSRFSGSGSGTQFSLKINSLQPEDFGSYYCQHFYVTPYMFGSGTKLEIKR	no binding	no binding (tested: about 67 nM (last point; axis to 100 nM))	binds		
m2E4 (antibody, V domains shown) VH: EVQLQESGPELVKPGASVKISCKASGYSFTGYYMNWVKQSPEKSLEWIGEINPSTGGTTYNQKFKAKATLTVDKSSSTAYMQLKSLTSEDSAVYYCVRYSHYYGSGSWYFDVWGTGTTVTVSS VL: DIQMTQSPASLSASVGETVTITCRASENIYSNLAWYQQKQGKSPQLLVNAATNLADGVPSRFSGSGSGTQFSLKINSLQPEDFGSYYCQHFYVTPYTFGSGTKLEIKR	no binding				
m2D8 (antibody, V domains shown) VH: EVQLQESGGELVRPGTSVKISCKASGYTFTNFWLGWIKERPGHGLEWIGDIYPGGHYTNYNENFKGKATLTADTSSNTAYMQVSSLTSEDSAVYFCFTQYYDMDYWGQGTSVTVSS VL: not shown	binds		binds		
m17C6 (antibody, V domains shown) VH: EVQLQESGPGLVQPSQSLSITCTVSGFSLTSYGVHWVRQSPGKGLEWLGVIWSGGSTDYNAAFISRLSISKDNSKSQVFFKMNSLQADDTAIYYCARNWFDYDNYYSMDYWGQGTSVTVSS VL: DIQMTQTTSSLSASLGDRVTISCRASQDISNYLNWYQQKPDGTVKLLIYYTSRLHSGVPSRFSGSGSGTDFSLTISNQEPEDIATYYCQQYSNLPWTFGGGTKLEIKR			binds	0.4	
m8C4 (antibody, V domains shown) VH: EVQLQESGPELKKPGETVKISCKASGYTFTTYGMSWVKQAPGKGLKWMGRINTYSGVPTYADEFKGRFAFSLENSASTAYLQINNLKNEDTATYFCARGDGGHWFANWGQGTLVTVSA VL: DIQMTQSPSSLSASLGGKVTITCKASQDINKNIAWYQHKPGKGPRLLIWYKSALQPGIPSRFSGSGSGRDYSFSISNLEPEDIATYSCLQYDNLPPTFGGGTKLEIKR	no binding			10.3	no binding
